These results are taken from the supplement of paper PMC5998384.

The test system of series [1] is HeLa Kyoto. The experiment in a line: thermal stability score vs G1/S (z-score of summed log2 fold changes over temperatures); higher = more thermally stable than in G1/S.
The test system of series [2] is HeLa Kyoto. The experiment in a line: solubility change mitosis vs G1/S (difference of NP-40 vs SDS log2 ratios) (log2 ratio difference); higher = more soluble in mitosis.
Series [3] deals with HeLa Kyoto. The experiment in a line: solubility in G1/S (NP-40 vs SDS abundance) (log2 ratio); higher = more soluble. As to conditions: cell cycle stage: G1/S.
Series [4] concerns HeLa Kyoto. The experiment in a line: melting temperature (median over replicates), in situ; higher = more thermally stable.
Setting [5] is: cell cycle stage: early G1 (4.5 h after nocodazole release).
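Wherever melting temperature (median over replicates), in situ is given: HeLa Kyoto cells synchronized by double thymidine or nocodazole block, proteins quantified by TMT10plex mass spectrometry, three independent biological replicates.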
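Wherever solubility change mitosis vs G1/S (difference of NP-40 vs SDS log2 ratios) is given: synchronized HeLa Kyoto cells (double thymidine block for G1/S, nocodazole release for mitosis), protein amounts in NP-40 versus SDS lysates quantified by mass spectrometry, three biological replicates.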
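Wherever solubility in G1/S (NP-40 vs SDS abundance) is given: HeLa Kyoto cells arrested at G1/S by double thymidine block, proteins quantified by TMT10plex mass spectrometry in mild NP-40 versus SDS extracts, three biological replicates.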
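Wherever thermal stability score vs G1/S (z-score of summed log2 fold changes over temperatures) is given: synchronized HeLa Kyoto cells, proteins quantified by TMT10plex mass spectrometry, three biological replicates, mitosis taken 0.5 h after nocodazole release, G1/S directly after double thymidine block.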

Take “MYHNSSQKRHWTFSSEEQLARLRADANRKFRCKAVANGKVLPNDPVFLEPHEEMTLCKYYEKRLLEFCSVFKPAMPRSVVGTACMYFKRFYLNNSVMEYHPRIIMLTCAFLACKVDEFNVSSPQFVGNLRESPLGQEKALEQILEYELLLIQQLNFHLIVHNPYRPFEGFLIDLKTRYPILENPEILRKTADDFLNRIALTDAYLLYTPSQIALTAILSSASRAGITMESYLSESLMLKENRTCLSQLLDIMKSMRNLVKKYEPPRSEEVAVLKQKLERCHSAELALNVITKKRKGYEDDDYVSKKSKHEEEEWTDDDLVESL [CCNH]”: the results for the thermal stability score with HeLa Kyoto [1] (setting [5]) and in the series with HeLa Kyoto [1] (cell cycle stage: mitosis) were 0.868 and 1.73, respectively. The “solubility change mitosis (log2)” value in the series with HeLa Kyoto [2] is -0.195. Further, the “solubility in G1/S (log2)” value with HeLa Kyoto [3] was found to be 0.259. The figures for the melting temperature in the series on HeLa Kyoto [4] (cell cycle stage: G1/S) and in the series on HeLa Kyoto [4] (cell cycle stage: mitosis) were 51.1 °C and 52.2 °C, respectively.
“MYLVAGDRGLAGCGHLLVSLLGLLLLLARSGTRALVCLPCDESKCEEPRNCPGSIVQGVCGCCYTCASQRNESCGGTFGIYGTCDRGLRCVIRPPLNGDSLTEYEAGVCEDENWTDDQLLGFKPCNENLIAGCNIINGKCECNTIRTCSNPFEFPSQDMCLSALKRIEEEKPDCSKARCEVQFSPRCPEDSVLIEGYAPPGECCPLPSRCVCNPAGCLRKVCQPGNLNILVSKASGKPGECCDLYECKPVFGVDCRTVECPPVQQTACPPDSYETQVRLTADGCCTLPTRCECLSGLCGFPVCEVGSTPRIVSRGDGTPGKCCDVFECVNDTKPACVFNNVEYYDGDMFRMDNCRFCRCQGGVAICFTAQCGEINCERYYVPEGECCPVCEDPVYPFNNPAGCYANGLILAHGDRWREDDCTFCQCVNGERHCVATVCGQTCTNPVKVPGECCPVCEEPTIITVDPPACGELSNCTLTGKDCINGFKRDHNGCRTCQCINTEELCSERKQGCTLNCPFGFLTDAQNCEICECRPRPKKCRPIICDKYCPLGLLKNKHGCDICRCKKCPELSCSKICPLGFQQDSHGCLICKCREASASAGPPILSGTCLTVDGHHHKNEESWHDGCRECYCLNGREMCALITCPVPACGNPTIHPGQCCPSCADDFVVQKPELSTPSICHAPGGEYFVEGETWNIDSCTQCTCHSGRVLCETEVCPPLLCQNPSRTQDSCCPQCTDQPFRPSLSRNNSVPNYCKNDEGDIFLAAESWKPDVCTSCICIDSVISCFSESCPSVSCERPVLRKGQCCPYCIEDTIPKKVVCHFSGKAYADEERWDLDSCTHCYCLQGQTLCSTVSCPPLPCVEPINVEGSCCPMCPEMYVPEPTNIPIEKTNHRGEVDLEVPLWPTPSENDIVHLPRDMGHLQVDYRDNRLHPSEDSSLDSIASVVVPIIICLSIIIAFLFINQKKQWIPLLCWYRTPTKPSSLNNQLVSVDCKKGTRVQVDSSQRMLRIAEPDARFSGFYSMQKQNHLQADNFYQTV [CRIM1]”: the thermal stability score with HeLa Kyoto [1] (setting [5]) was -2.44; in the series on HeLa Kyoto [1] (cell cycle stage: mitosis), -0.713. Also, the “solubility change mitosis (log2)” value with HeLa Kyoto [2] is -0.0635. Moreover, the “solubility in G1/S (log2)” value with HeLa Kyoto [3] was -0.0525. The melting temperature came to 53.8 °C in the series with HeLa Kyoto [4] (cell cycle stage: G1/S) and 54.9 °C in the series on HeLa Kyoto [4] (cell cycle stage: mitosis).
In the case of MYO5B, the thermal stability score in the series on HeLa Kyoto [1] (setting [5]) is -0.778; in the series on HeLa Kyoto [1] (cell cycle stage: mitosis) it was -0.163. In addition, the “solubility change mitosis (log2)” value with HeLa Kyoto [2] worked out at 0.158. In addition, in the series on HeLa Kyoto [3], the “solubility in G1/S (log2)” value is -0.588. Also, the melting temperature with HeLa Kyoto [4] (cell cycle stage: G1/S) stood at 49.7 °C; in the series with HeLa Kyoto [4] (cell cycle stage: mitosis), 53.1 °C.
Take MYO5C: the thermal stability score with HeLa Kyoto [1] (setting [5]) came out at 0.384; in the series with HeLa Kyoto [1] (cell cycle stage: mitosis) it was 1.14. Also, in the series on HeLa Kyoto [2], the “solubility change mitosis (log2)” value stood at 0.291. In addition, the “solubility in G1/S (log2)” value in the series on HeLa Kyoto [3] is -0.665. The melting temperature in the series on HeLa Kyoto [4] (cell cycle stage: G1/S) was found to be 50.9 °C.
As for “MYPESTTGSPARLSLRQTGSPGMIYSTRYGSPKRQLQFYRNLGKSGLRVSCLGLGTWVTFGGQITDEMAEQLMTLAYDNGINLFDTAEVYAAGKAEVVLGNIIKKKGWRRSSLVITTKIFWGGKAETERGLSRKHIIEGLKASLERLQLEYVDVVFANRPDPNTPMEETVRAMTHVINQGMAMYWGTSRWSSMEIMEAYSVARQFNLTPPICEQAEYHMFQREKVEVQLPELFHKIGVGAMTWSPLACGIVSGKYDSGIPPYSRASLKGYQWLKDKILSEEGRRQQAKLKELQAIAERLGCTLPQLAIAWCLRNEGVSSVLLGASNADQLMENIGAIQVLPKLSSSIIHEIDSILGNKPYSKKDYRS [KCNAB2]”, the thermal stability score in the series on HeLa Kyoto [1] (setting [5]) is -0.252; in the series on HeLa Kyoto [1] (cell cycle stage: mitosis) it was 3.11. Moreover, the “solubility change mitosis (log2)” value in the series with HeLa Kyoto [2] was -0.201. Moreover, the “solubility in G1/S (log2)” value in the series with HeLa Kyoto [3] came out at 0.117. In addition, the results for the melting temperature in the series on HeLa Kyoto [4] (cell cycle stage: G1/S) and with HeLa Kyoto [4] (cell cycle stage: mitosis) were 60.3 °C and 58.8 °C, respectively.
